Reference: the supplement of paper PMC10567573

B1: EIF5 (parent)
chain: KQTIGNSCKACGYRGMLDTHHKLC
B2: CCDC89 (parent)
chain: LNAELEEKMMQEAEKLKAQGEYSR

Variants of: B1
Test: protein stability index of a GFP-peptide fusion (GPS, HEK-293T) (PSI 1-6); higher = more stable
Conditions: c terminus: a fixed tail appended
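Also: lentivirally expressed fusions sorted by FACS into six bins by GFP to DsRed ratio, PSI derived from sequencing read proportions per bin multiplied by bin number.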

Protein stability index: each site, then its substitutions
K1: T 3.48 | P 3.6 | E 2.95 | L 2.9 | C 2.97 | D 3.88 | N 3.22 | Q 3.14 | H 2.95 | A 2.98 | Y 2.55 | F 2.55 | I 2.04 | S 3.31 | V 2.95 | M 2.36 | G 3.35 | R 3.18 | W 3.05
Q2: A 3.48

Variants of: B2
Test: as above
Conditions: c terminus: a fixed tail appended

Protein stability index, by site and new letter:
E7: Q 4.18 | T 4.74 | M 4.54 | V 5 | A 4.87 | I 4.64 | R 3.8 | H 4.5 | F 4.97 | S 4.01 | D 4.81 | C 5
K8: P 5.12 | R 4.98 | W 4.5 | M 4.92 | C 5.15 | S 3.82 | A 4.9 | I 4.25 | H 5.36 | Y 4.46 | L 5.19 | D 4.78 | N 4.49
E4: H 4.4 | S 5.16 | V 3.95 | K 3.96 | M 3.91 | F 4.47 | W 3.12 | L 4.56 | C 3.98 | Q 4.76 | T 4.3 | Y 3.74 | D 4.94 | R 4.57 | I 4.6
L5: V 5.09 | I 4.88 | Q 5.55 | A 4.86 | H 5.19 | T 5.47 | K 4.53 | Y 4.33 | S 5.38 | W 4.71 | E 5.46 | D 4.71 | N 5.44 | P 5.58
S23: A 4.62 | T 4.98 | C 4.73 | M 5.11 | I 4.19 | K 4.92 | L 5.2 | V 4.43 | W 4.97 | N 4.51 | Q 5.04 | D 5.7
Q19: W 4.62 | T 5.18 | E 5.84 | M 4.13 | F 3.64 | K 5.3 | I 3.83 | S 5.19 | D 5.85 | V 5.57 | A 5.24 | L 2.99 | G 4.95 | N 4.82 | P 5.12
E14: G 3.59 | C 4.33 | L 4.5 | F 4.05 | D 5.19 | N 4.66 | Q 5.15 | I 4.27
A3: N 3.89 | G 3.57 | C 4.69 | Q 4.97 | T 5.63 | I 4.9 | S 4.96 | P 4.76 | H 4.71 | E 4.45 | W 4.58 | K 5.28
M9: D 4.89 | T 5.23 | I 5.12 | H 5.95 | C 5.52 | R 5.12 | N 5.1 | Q 4.79 | P 5.53 | G 5.05 | L 3.96 | A 5.2 | W 5.04
A18: N 5.09 | H 4.15 | Q 5.3 | W 4.15 | R 4.31 | I 4.32 | T 5.07 | F 4.28 | C 4.79 | G 4.43 | P 4.7 | M 4.71
E21: K 5.46 | C 4.29 | G 4.17 | Y 5.03 | L 4.16 | I 4.62 | N 4.79 | S 4.39 | M 4.76 | H 4.47 | D 4.92 | W 3.76 | V 4.58 | R 4.98
Y22: K 5.55 | D 5.99 | M 5.29 | F 4.46 | I 5.29 | G 5.63 | L 5.34 | E 4.65 | N 5.79
L1: M 5.2 | V 4.41 | Y 4.95 | W 4.8 | H 4.89 | D 5.54 | P 5.4 | E 4.91 | R 5.17 | A 5.74 | K 5.3 | C 5.32 | T 4.98 | Q 5.11 | F 5.18 | N 4.97
L16: T 5.14 | G 5.09 | S 5.76 | K 4.85 | W 4.6 | N 5.17 | P 5.68 | D 5.77 | E 5.79 | Q 4.65 | C 5.36 | V 4.97 | Y 4.37 | I 5.82
M10: W 4.7 | R 5.25 | Y 5.15 | D 5.08 | K 5.08 | H 5.11 | T 5.42 | L 5.46 | S 5.65 | A 5.55 | V 5.13 | E 5.39
N2: M 4.99 | G 5.14 | I 4.79 | W 2.71 | F 4.17 | H 5.42 | A 4.98 | D 3.11 | Q 5.63 | P 4.82 | R 3.94
A13: T 5.26 | D 5.8 | H 4.85 | K 5.08 | Y 5.28 | F 4.49 | Q 4.5 | I 4.38 | M 5 | G 4.84 | V 4.64 | E 5.71 | C 4.94 | S 4.68 | R 4.99
Q11: K 4.94 | C 5.38 | E 5.55 | T 5.67 | G 5.18 | L 3.99 | F 4.14 | N 5.04 | M 4.18 | Y 4.86 | V 5.09 | P 4.75 | I 4.96 | D 5.7 | H 4.84
G20: I 3.68 | H 4.35 | K 5.22 | S 4.91 | Y 4.44 | C 2.96 | L 2.99 | A 4.98 | V 5.31 | P 5.43 | N 4.99 | R 4.85 | E 4.82
K17: L 4.54 | D 5.47 | W 3.79 | F 4.3 | H 3.87 | R 4.41 | Q 5.22 | V 4.4 | I 4.72 | G 4.93 | P 5.65 | C 4.02 | Y 4.43
K15: H 5.2 | N 4.71 | V 4.78 | D 5.58 | Y 4.3 | Q 5.41 | C 5.03 | L 4.99 | A 5.41 | R 4.84 | E 5.06 | P 5.38 | W 4.41 | S 4.38 | G 5.26
E12: Y 3.47 | K 4.67 | V 4.12 | F 3.56 | A 4.42 | L 2.92 | W 4.42 | N 4.75 | T 4.4 | C 4.38
E6: Q 4.65 | K 4.64 | R 4.36 | H 4.79 | P 4.8 | F 3.39 | M 4.42 | N 4.71 | W 3.56 | V 3.04 | I 4.08 | T 3.27 | L 2.68 | G 5.15 | C 4.69 | S 4.96
R24: V 5.64 | D 5.67 | M 4.99 | S 5.38 | Q 4.63 | G 5.81 | A 5.49 | W 3.81 | I 4.86 | N 5.03 | P 5.48 | H 5.78 | K 5.53 | F 4.66 | C 5.37
